Among the data in US20090291890A1 (published 2009) are kcat/KM, TF-Dependent Indirect Assay values, retold here.

First the molecules themselves.
B1: FVIIa variant A122N/G124S/E394N/P395A/R396S (enzyme)
chain: ANAFLEELRPGSLERECKEEQCSFEEAREIFKDAERTKLFWISYSDGDQCASSPCQNGGSCKDQLQSYICFCLPAFEGRNCETHKDDQLICVNENGGCEQYCSDHTGTKRSCRCHEGYSLLNDSVSCTPTVEYPCGKIPILEKRNASKPQGRIVGGKVCPKGECPWQVLLLVNGAQLCGGTLINTIWVVSAAHCFDKIKNWRNLIAVLGEHDLSEHDGDEQSRRVAQVIIPSTYVPGTTNHDIALLRLHQPVVLTDHVVPLCLPERTFSERTLAFVRFSLVSGWGQLLDRGATALELMVLNVPRLMTQDCLQQSRKVGDSPNITEYMFCAGYSDGSKDSCKGDSGGPHATHYRGTWYLTGIVSWGQGCATVGHFGVYTRVSQYIEWLQKLMRSNASPGVLLRAPFP
B2: FVIIa variant S222A/H257A (enzyme)
chain: B1 chain with N122A, S124G, S222A, H257A, N394E, A395P, S396R
B3: FVIIa variant T239Q (enzyme)
chain: B1 chain with N122A, S124G, T239Q, N394E, A395P, S396R
B4: FVIIa variant T239L (enzyme)
chain: B1 chain with N122A, S124G, T239L, N394E, A395P, S396R
B5: FVIIa variant Q286R/H257A (enzyme)
chain: B1 chain with N122A, S124G, H257A, Q286R, N394E, A395P, S396R
B6: FVIIa variant S222A/H257A/M298Q (enzyme)
chain: B1 chain with N122A, S124G, S222A, H257A, M298Q, N394E, A395P, S396R
B7: FVIIa variant T239I (enzyme)
chain: B1 chain with N122A, S124G, T239I, N394E, A395P, S396R
B8: FVIIa variant T239H (enzyme)
chain: B1 chain with N122A, S124G, T239H, N394E, A395P, S396R
B9: FVIIa variant A175S/Q286R/Q366V (enzyme)
chain: B1 chain with N122A, S124G, A175S, Q286R, Q366V, N394E, A395P, S396R
B10: FVIIa variant S222A/H257A/Q286R/M298Q (enzyme)
chain: B1 chain with N122A, S124G, S222A, H257A, Q286R, M298Q, N394E, A395P, S396R
B11: FVIIa variant A175S/S222A/Q366V (enzyme)
chain: B1 chain with N122A, S124G, A175S, S222A, Q366V, N394E, A395P, S396R
B12: FVIIa variant Q286R/S222A (enzyme)
chain: B1 chain with N122A, S124G, S222A, Q286R, N394E, A395P, S396R
B13: FVIIa variant T239S (enzyme)
chain: B1 chain with N122A, S124G, T239S, N394E, A395P, S396R
B14: FVIIa variant T239V (enzyme)
chain: B1 chain with N122A, S124G, T239V, N394E, A395P, S396R
B15: FVIIa variant Q286R/S222A/H257A (enzyme)
chain: B1 chain with N122A, S124G, S222A, H257A, Q286R, N394E, A395P, S396R
B16: FVIIa variant V158D/L287T/M298K (enzyme)
chain: B1 chain with N122A, S124G, V158D, L287T, M298K, N394E, A395P, S396R
B17: FVIIa variant Q286M (enzyme)
chain: B1 chain with N122A, S124G, Q286M, N394E, A395P, S396R
B18: FVIIa variant V158T/L287T/M298K (enzyme)
chain: B1 chain with N122A, S124G, V158T, L287T, M298K, N394E, A395P, S396R
B19: FVIIa variant Q286R/M298Q/K199E (enzyme)
chain: B1 chain with N122A, S124G, K199E, Q286R, M298Q, N394E, A395P, S396R
B20: FVIIa variant S222A/Q286R/Q366V (enzyme)
chain: B1 chain with N122A, S124G, S222A, Q286R, Q366V, N394E, A395P, S396R
B21: FVIIa variant Q286R/M298Q/K341Q (enzyme)
chain: B1 chain with N122A, S124G, Q286R, M298Q, K341Q, N394E, A395P, S396R
B22: FVIIa variant P406ins… (enzyme)
chain: ANAFLEELRPGSLERECKEEQCSFEEAREIFKDAERTKLFWISYSDGDQCASSPCQNGGSCKDQLQSYICFCLPAFEGRNCETHKDDQLICVNENGGCEQYCSDHTGTKRSCRCHEGYSLLADGVSCTPTVEYPCGKIPILEKRNASKPQGRIVGGKVCPKGECPWQVLLLVNGAQLCGGTLINTIWVVSAAHCFDKIKNWRNLIAVLGEHDLSEHDGDEQSRRVAQVIIPSTYVPGTTNHDIALLRLHQPVVLTDHVVPLCLPERTFSERTLAFVRFSLVSGWGQLLDRGATALELMVLNVPRLMTQDCLQQSRKVGDSPNITEYMFCAGYSDGSKDSCKGDSGGPHATHYRGTWYLTGIVSWGQGCATVGHFGVYTRVSQYIEWLQKLMRSEPRPGVLLRAPFPCSFGRGDIRNVC
B23: FVIIa variant P406ins… (enzyme)
chain: ANAFLEELRPGSLERECKEEQCSFEEAREIFKDAERTKLFWISYSDGDQCASSPCQNGGSCKDQLQSYICFCLPAFEGRNCETHKDDQLICVNENGGCEQYCSDHTGTKRSCRCHEGYSLLADGVSCTPTVEYPCGKIPILEKRNASKPQGRIVGGKVCPKGECPWQVLLLVNGAQLCGGTLINTIWVVSAAHCFDKIKNWRNLIAVLGEHDLSEHDGDEQSRRVAQVIIPSTYVPGTTNHDIALLRLHQPVVLTDHVVPLCLPERTFSERTLAFVRFSLVSGWGQLLDRGATALELMVLNVPRLMTQDCLQQSRKVGDSPNITEYMFCAGYSDGSKDSCKGDSGGPHATHYRGTWYLTGIVSWGQGCATVGHFGVYTRVSQYIEWLQKLMRSEPRPGVLLRAPFPGGGSCSFGRGDIRNVC
B24: FVIIa variant S103S111delins… (enzyme)
chain: ANAFLEELRPGSLERECKEEQCSFEEAREIFKDAERTKLFWISYSDGDQCASSPCQNGGSCKDQLQSYICFCLPAFEGRNCETHKDDQLICVNENGGCEQYCSFGRGDIRNVCRCHEGYSLLADGVSCTPTVEYPCGKIPILEKRNASKPQGRIVGGKVCPKGECPWQVLLLVNGAQLCGGTLINTIWVVSAAHCFDKIKNWRNLIAVLGEHDLSEHDGDEQSRRVAQVIIPSTYVPGTTNHDIALLRLHQPVVLTDHVVPLCLPERTFSERTLAFVRFSLVSGWGQLLDRGATALELMVLNVPRLMTQDCLQQSRKVGDSPNITEYMFCAGYSDGSKDSCKGDSGGPHATHYRGTWYLTGIVSWGQGCATVGHFGVYTRVSQYIEWLQKLMRSEPRPGVLLRAPFP
B25: FVIIa variant S222A/Gla Swap FIX (enzyme)
chain: YNSGKLEEFVQGNLERECMEEKCSFEEAREVFENTERTTEFWKQYSDGDQCASSPCQNGGSCKDQLQSYICFCLPAFEGRNCETHKDDQLICVNENGGCEQYCSDHTGTKRSCRCHEGYSLLADGVSCTPTVEYPCGKIPILEKRNASKPQGRIVGGKVCPKGECPWQVLLLVNGAQLCGGTLINTIWVVSAAHCFDKIKNWRNLIAVLGEHDLSEHDGDEQARRVAQVIIPSTYVPGTTNHDIALLRLHQPVVLTDHVVPLCLPERTFSERTLAFVRFSLVSGWGQLLDRGATALELMVLNVPRLMTQDCLQQSRKVGDSPNITEYMFCAGYSDGSKDSCKGDSGGPHATHYRGTWYLTGIVSWGQGCATVGHFGVYTRVSQYIEWLQKLMRSEPRPGVLLRAPFP
B26: FVIIa variant H257A/Gla Swap FIX (enzyme)
chain: B25 chain with A223S, H258A
B27: FVIIa variant Q286R/S222A/Gla Swap FIX (enzyme)
chain: B25 chain with Q287R
B28: FVIIa variant Q286R/S222A/H257A/Gla Swap FIX (enzyme)
chain: B25 chain with H258A, Q287R
B29: FVIIa variant Q286R/Gla Swap FIX (enzyme)
chain: B25 chain with A223S, Q287R
B30: FVIIa variant S222A/H257A/Gla Swap FIX (enzyme)
chain: B25 chain with H258A
B31: FVIIa variant Q286R/H257A/Gla Swap FIX (enzyme)
chain: B25 chain with A223S, H258A, Q287R

Positions count from the first letter of the chain named. Numbers in names are those of the source.

Factor X (FX) (Homo sapiens (Human)), sequence (P00742 41-488 limits assumed): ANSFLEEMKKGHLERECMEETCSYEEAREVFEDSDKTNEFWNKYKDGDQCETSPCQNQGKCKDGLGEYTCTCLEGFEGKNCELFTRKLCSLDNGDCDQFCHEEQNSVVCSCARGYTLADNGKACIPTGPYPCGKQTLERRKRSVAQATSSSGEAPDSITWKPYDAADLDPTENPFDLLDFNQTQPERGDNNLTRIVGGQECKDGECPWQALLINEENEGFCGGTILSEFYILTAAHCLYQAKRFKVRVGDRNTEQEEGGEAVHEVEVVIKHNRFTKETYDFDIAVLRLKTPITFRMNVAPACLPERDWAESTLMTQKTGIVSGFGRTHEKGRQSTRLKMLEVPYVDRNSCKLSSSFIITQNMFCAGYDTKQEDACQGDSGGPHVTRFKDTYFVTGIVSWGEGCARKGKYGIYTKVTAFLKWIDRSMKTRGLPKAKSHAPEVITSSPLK

This assay concerns the target Factor X (FX) (Homo sapiens (Human)) (UniProt P00742).
Take B1: the kcat/KM, TF-Dependent Indirect Assay was 4.88e+07 M⁻¹ s⁻¹.

Consider B2, for which the kcat/KM, TF-Dependent Indirect Assay came out at 5.02e+07 M⁻¹ s⁻¹.

Turning to B3, the kcat/KM, TF-Dependent Indirect Assay stood at 1.74e+07 M⁻¹ s⁻¹.

For B4, the kcat/KM, TF-Dependent Indirect Assay stood at 3.77e+07 M⁻¹ s⁻¹.

Regarding B5, the kcat/KM, TF-Dependent Indirect Assay came to 1.27e+08 M⁻¹ s⁻¹.

B6: the kcat/KM, TF-Dependent Indirect Assay stood at 7.75e+07 M⁻¹ s⁻¹.

Regarding B7, the kcat/KM, TF-Dependent Indirect Assay came out at 3.5e+07 M⁻¹ s⁻¹.

Regarding B8, the kcat/KM, TF-Dependent Indirect Assay is 9.9e+06 M⁻¹ s⁻¹.

Regarding B9, the kcat/KM, TF-Dependent Indirect Assay came to 8.08e+07 M⁻¹ s⁻¹.

In the case of B10, the kcat/KM, TF-Dependent Indirect Assay was determined as 2e+08 M⁻¹ s⁻¹.

As for B11, the kcat/KM, TF-Dependent Indirect Assay was determined as 3.78e+07 M⁻¹ s⁻¹.

Take B12: the kcat/KM, TF-Dependent Indirect Assay stood at 1.42e+08 M⁻¹ s⁻¹.

Turning to B13, the kcat/KM, TF-Dependent Indirect Assay was determined as 1.74e+07 M⁻¹ s⁻¹.

For B14, the kcat/KM, TF-Dependent Indirect Assay is 9.57e+07 M⁻¹ s⁻¹.

On to B15, for which the kcat/KM, TF-Dependent Indirect Assay is 9.51e+07 M⁻¹ s⁻¹.

B16: the kcat/KM, TF-Dependent Indirect Assay is 4.48e+06 M⁻¹ s⁻¹.

As for B17, the kcat/KM, TF-Dependent Indirect Assay was 5.25e+07 M⁻¹ s⁻¹.

Regarding B18, the kcat/KM, TF-Dependent Indirect Assay was found to be 4.5e+06 M⁻¹ s⁻¹.

As for B19, the kcat/KM, TF-Dependent Indirect Assay came to 7.74e+07 M⁻¹ s⁻¹.

Take B20: the kcat/KM, TF-Dependent Indirect Assay stood at 1.27e+08 M⁻¹ s⁻¹.

Regarding B21, the kcat/KM, TF-Dependent Indirect Assay amounted to 3.93e+07 M⁻¹ s⁻¹.

Consider B22, for which the kcat/KM, TF-Dependent Indirect Assay is 6.16e+07 M⁻¹ s⁻¹.

B23: the kcat/KM, TF-Dependent Indirect Assay is 7.47e+07 M⁻¹ s⁻¹.

Consider B24, for which the kcat/KM, TF-Dependent Indirect Assay is 4.83e+07 M⁻¹ s⁻¹.

As to B25, the kcat/KM, TF-Dependent Indirect Assay came to 6.55e+07 M⁻¹ s⁻¹.

For B26, the kcat/KM, TF-Dependent Indirect Assay is 6.45e+07 M⁻¹ s⁻¹.

With B27, the kcat/KM, TF-Dependent Indirect Assay came out at 1.61e+08 M⁻¹ s⁻¹.

Consider B28, for which the kcat/KM, TF-Dependent Indirect Assay is 7.75e+07 M⁻¹ s⁻¹.

As to B29, the kcat/KM, TF-Dependent Indirect Assay was found to be 1.11e+08 M⁻¹ s⁻¹.

Turning to B30, the kcat/KM, TF-Dependent Indirect Assay was found to be 5.77e+07 M⁻¹ s⁻¹.

With B31, the kcat/KM, TF-Dependent Indirect Assay worked out at 8.09e+07 M⁻¹ s⁻¹.
